Protein production data for 8 sequences are collected here from a protein production outcome set (Wang et al. 2014).

The nature of the data set: label from the status in PepcDB records.

Consider “MKFSEECRSAAAEWWEGSFVHPFVQGIGDGTLPIDRFKYYVLQDSYYLTHFAKVQSFGAAYAKDLYTTGRMASHAQGTYEAEMALHREFAELLEISEEERKAFKPSPTAYSYTSHMYRSVLSGNFAEILAALLPCYWLYYEVGEKLLHCDPGHPIYQKWIGTYGGDWFRQQVEEQINRFDELAENSTEEVRAKMKENFVISSYYEYQFWGMAYRKEGWSDSAIKEVEECGASRHNG”, for which the protein production entry is “not failed”. For “MKFSVLMSLYIKENPQFLRECFESLVAQTRQADEIVLVFDGVVTPDLEFVVTEFETKLPLKLVKLPQNRGLGKALNEGLLHCDYDWVFRMDTDDICVPDRFEKQVAFIEQHPESIIFGGQIAEFGKNVNDIVAYRNVPTSAQEIIKFTQKRCPFNHMTVAYQKSAVINCGGYEDLQEDYYLWIKLVAQGLYMANLPDILVYARVGNGMVLEHHHHHH” the value was “not failed”.

On to “MKFTQRLSLRVRLTLIFLILASVTWLLSSFVAWKQTTDNVDELFDTQLMLFAKRLSTLDLNEINAADRMAQTPNKLKHGHVDDDALTFAIFTHDGRMVLNDGDNGEDIPYSYQREGFADGQLVGEDDPWRFVWMTSPDGKYRIVVGQEWEYREDMALAIVAGQLIPWLVALPIMLIIMMVLLGRELAPLNKLALALRMRDPDSEKPLNATGVPSEVRPLVESLNQLFARTHAMMVRERRFTSDAAHELRSPLTALKVQTEVAQLSDDDPQARKKALLQLHSGIDRATRLVDQLLTLSRLDSLDNLQDVAEIPLEDLLQSSVMDIYHTAQQAKIDVRLTLNAHGIKRTGQPLLLSLLVRNLLDNGPGVTPEALARIGERFYRPPGQTATGSGLGLSIVQRIAKLHDMNVEFGNAEQGGFEAKVSW”, for which the protein production entry is reported as “failed”. Under “MKFYNREKEVAELKRVQELAFTQNSRMIVVTGRRRIGKTSLIKEALKGTPTVYLFIGRKAESILVTDFVKIVRETLSIFVPEGIPTFTNLMQYLFEVGKTRAFNIVIDEFQEFYNIRPDVFSDMQNLWDEYKQETKINLVISGSVYSLMQKIFTDHNEPLFGRADNILCLRAFKIGVLKQIMEDLASGYSNDDLLALYTLTGGIPKYVELFCDNQALTIDKMYDFVFSENSLFIDEGRNLLITEFGKNYGTYFSILSEIANGHYTQGEIESALGGTAIGGYLSKLENVYNLITRERPIFAKPGTKKNVRYVIGDNFLNFWFKYIEQNRSYIELQNFDDLRQLAKADYPTYSGRVLEKYFKQKLAETGGFKEIGSWWETKSSIGKQRINSYEIDIVALKSSGKKALIAEVKRVPENNYSHTVFMEKVEHLKQKEMSKYDIETQVLGLKDMLEHHHHHH” stands “failed”; under “MKGDRHCIVIIDMLNDFIGPNAPLRCPDGEKIVPNLQKLVEFAHENGINVVFVQEAHRKNDADFRVRPVHAVKGTWGSDFIPELRPDEEKGDYIVQKRRHSAFAYTDLDLYLREEKIDTVVVTGVWTNVCVRSTASDALYHAYNVIAISDCCASANEEMHQAGLRDMALFAEVMTLEEYMKEWPNREGAKK”, “not failed”; under “MKGDRTLSCMIKTDRGEICIDPAEPILHIIGKKYAIFIVSVLGNDNTRKNFNDLMRAVPGISSTMLSARLHEMNECGLIERHEGDIVTYELTERGREIRKRMLPLIEYLADAD”, “failed”. Under “MKGENAMEHHTSVLSLMVVVAIAFFVPLLLQRFKLKALPVVVAEIIAGIFVGKSGFNIIEPDIWLQVLSTLGFIFLMFLSGLEIDFSIFKQKGKKNTTNEPNTFQAASIIFLFIFILSYALSLLFVWLGFVDNAMFMTLIISTISLGVVVPTLKENNLGKTAIGQIILLVAVIADLVTMILLAVFVGLNSESGQSMWLLLLLFGAGIVIYFVAKRFKNIPYLDSLKAGSVQIDTRAVFALILILVGLSESVGAENILGAFLAGVLVSLLSPNEDMVEKLDSIGYGFFIPIFFVMVGVNLEVWSIFKEPSSMLMIPILIVGLFISKLLPSLVLRKWYPRNIVLGSAILLTSTLSLVIAAAQIGEKLEIISPSLSVSLILSAVITCIFAPILFKKMFPKVETPKPKVAIIGASRITLPLSLDLKREDYDVTLYMMRQNKINDEEATSHDFPIVKLDDITIASLTEQTAFDADRVVVATSDDEQNLLLAEHAKELGVEHVIASVEDPLLQEKATQEHIAVFSTINSTRILLRALIDKPSLVRLITTANETVREVELRSNKYNGVALRRLPFLGDVLVIQIYRGNKALIPHGDTRLQHGDTLLVTGSKEHIDTLKNILE” stands “failed”; under “MKGGLYMKLTKKQLKEYIEDYKKSDDILINLYIETYEFYCRLRDELKNSDLMIEHTNKAGASNIVKNPLSIELTKTVQTLNNLLKSMGLTAAQRKKIVQEEGGFGDY”, “failed”.
